Key:
[1] = molecular target: T1, recombinant human PD-L1 (Sino Biological Inc.) (human, UniProt Q9NZQ7 19-239); test: PD-L1/CD80 blocking assay, competitor CD80, format not described
[2] = molecular target: recombinant cynomolgus PD-L1 (Sino Biological Inc.) (cynomolgus, UniProt G7PSE7 19-238); test: ELISA, plate coated with 1 ug/mL recombinant cynomolgus PD-L1, anti-human IgG-HRP, OD450
Method: (§1) A 96-well high-adsorption ELISA plate was coated with 1 μg/mL of the recombinant human PD-L1, cynomolgus PD-L1, rat PD-L1 and mouse PD-L1 (all purchased from Sino Biological Inc.), at 100 μL per well using carbonate buffer solution, pH=9.6 at 4° C. overnight. The plate was washed 5 times with PBST, and then blocked using PBST with 1% BSA, 300 μL/well, and incubated at 25° C. for 1 hour, and then washed 5 times with PBST. The chimeric anti-human PD-L1 antibody samples serially diluted in PBST with 1% BSA were added, 100 μL/well, incubated at 25° C. for 1 hour, and then washed 5 times with PBST. The horseradish peroxidase-labeled anti-human IgG antibody (Chemicon, catalog number AP309P) diluted 1:10000 in PBST with 1% BSA was then added, 100 μL per well, and incubated at 25° C. for 1 hour. The plate was washed 5 times with PBST. The colorimetric substrate TMB was added, 100 μL/well, and developed at room temperature for 10 minutes. 1M H₂SO₄ was added, 100 μL/well, to stop the development. The absorbance at 450 nm was read on a microplate reader.

[3] = molecular target: T1, recombinant human PD-L1 (Sino …); test: SPR, Biacore X100
Method: This instrument utilizes optical surface plasmon resonance technology to detect the association and dissociation between the molecules coated on the biochip and the molecules to be tested. Association constants and dissociation constants were analyzed and calculated by Biacore X100 evaluation software. […]

[4] = molecular target: recombinant human CD28 (Sino Biological Inc.) (human, UniProt P10747 19-152); test: ELISA, plate coated with 1 ug/mL recombinant human CD28, anti-human IgG-HRP, OD450; antibody concentration not shown
Method: (§2) The plate was washed 5 times with PBST, and then blocked using PBST with 1% BSA, 300 μL/well, and incubated at 25° C. for 1 hour, and then washed 5 times with PBST. […] The horseradish peroxidase-labeled anti-human IgG antibody (Chemicon, catalog number AP309P) diluted 1:10000 in PBST with 1% BSA was then added, 100 μL per well, and incubated at 25° C. for 1 hour. The plate was washed 5 times with PBST. The colorimetric substrate TMB was added, 100 μL/well, and developed at room temperature for 10 minutes. 1M H₂SO₄ was added, 100 μL/well, to stop the development. The absorbance at 450 nm was read on a microplate reader.

[5] = molecular target: recombinant human PD1 (Sino Biological Inc.) (human, UniProt Q15116 25-167); test: ELISA, plate coated with 1 ug/mL recombinant human PD1, anti-human IgG-HRP, OD450; antibody concentration not shown
Chain of recombinant human PD1 (Sino Biological Inc.) (Q15116 25-167 limits assumed): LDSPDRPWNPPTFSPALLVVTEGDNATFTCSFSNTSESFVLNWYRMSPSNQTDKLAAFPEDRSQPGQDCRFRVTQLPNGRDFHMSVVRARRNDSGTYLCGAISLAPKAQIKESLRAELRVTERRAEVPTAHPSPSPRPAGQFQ
Method: as §2

[6] = molecular target: T1, recombinant human PD-L1 (Sino …); test: ELISA, human PD-L1 coated
Method: as §1, with “human” for “human PD-L1, cynomolgus PD-L1, rat”, “(Sino” for “and mouse PD-L1 (all purchased from Sino”, “Inc.)” for “Inc.),”, “The chimeric anti-human PD-L1 antibody samples serially diluted in PBST with 1% BSA were added, 100 μL/well, incubated at 25° C. for 1 hour, and then washed 5 times with PBST.” left out

[7] = molecular target: T2, recombinant human CD80 (Sino Biological Inc.) (human, UniProt P33681 35-242); test: ELISA, plate coated with 1 ug/mL recombinant human CD80 (printed B7-1), anti-human IgG-HRP, OD450; antibody concentration not shown
T2 sequence (looked up): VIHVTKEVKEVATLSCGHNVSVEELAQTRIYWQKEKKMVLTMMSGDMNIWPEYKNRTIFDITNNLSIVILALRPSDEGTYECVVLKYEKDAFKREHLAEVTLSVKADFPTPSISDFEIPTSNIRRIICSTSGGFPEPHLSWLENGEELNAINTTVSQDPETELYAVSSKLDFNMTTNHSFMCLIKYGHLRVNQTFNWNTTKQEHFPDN
Method: as §2

[8] = molecular target: T1, recombinant human PD-L1 (Sino …); test: direct binding ELISA, plate coated with 1 ug/mL recombinant human PD-L1, anti-human IgG-HRP, OD450; the curve rises, the sheet labels the half-maximal value IC50
Method: as §1, with “human” for “human PD-L1, cynomolgus PD-L1, rat”, “(Sino” for “and mouse PD-L1 (all purchased from Sino”, “Inc.)” for “Inc.),”, “The chimeric anti-human PD-L1 antibody samples serially diluted in PBST with 1% BSA were added, 100 μL/well, incubated at 25° C. for 1 hour, and then washed 5 times with PBST.” left out

[9] = molecular target: T1, recombinant human PD-L1 (Sino …); test: ELISA, plate coated with 1 ug/mL recombinant human PD-L1, anti-human IgG-HRP, OD450
Method: as §1

[10] = molecular target: T3, recombinant human PD-L1-Fc protein (human, UniProt Q9NZQ7 19-238, limits assumed); test: competition ELISA: PD-L1-Fc coated, competitor biotin-labelled PD-1-Fc
T3 construct: Prepared by Beijing Hanmi Pharmaceutical; The GenBank number is NP_001254635.1
T3 sequence (Q9NZQ7 19-238 limits assumed): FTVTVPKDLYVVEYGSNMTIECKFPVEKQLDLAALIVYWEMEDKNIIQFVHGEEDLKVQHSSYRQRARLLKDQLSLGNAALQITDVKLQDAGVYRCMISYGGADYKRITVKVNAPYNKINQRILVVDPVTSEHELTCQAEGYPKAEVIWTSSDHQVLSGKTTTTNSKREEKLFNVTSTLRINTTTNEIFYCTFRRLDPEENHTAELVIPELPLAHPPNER
Method: A 96-well high-adsorption ELISA plate was coated with 1 μg/mL of the recombinant human PD-L1-Fc at 100 μL per well using carbonate buffer solution, pH=9.6 at 4° C. overnight. The plate was washed 5 times with PBST, and then blocked using PBST with 1% BSA, 300 μL/well, and incubated at 25° C. for 1 hour, and then washed 5 times with PBST. […] The Streptavidin-HRP (BD Pharmingen, catalog number 554066) diluted 1:1000 in PBST with 1% BSA was then added, 100 μL per well, and incubated at 25° C. for 1 hour. The plate was washed 5 times with PBST. The colorimetric substrate TMB was added, 100 μL/well, and developed at room temperature for 10 minutes. 1M H₂SO₄ was added, 100 μL/well, to stop the development. The absorbance at 450 nm was read on a microplate reader.

T1 sequence (Q9NZQ7 19-239 limits assumed): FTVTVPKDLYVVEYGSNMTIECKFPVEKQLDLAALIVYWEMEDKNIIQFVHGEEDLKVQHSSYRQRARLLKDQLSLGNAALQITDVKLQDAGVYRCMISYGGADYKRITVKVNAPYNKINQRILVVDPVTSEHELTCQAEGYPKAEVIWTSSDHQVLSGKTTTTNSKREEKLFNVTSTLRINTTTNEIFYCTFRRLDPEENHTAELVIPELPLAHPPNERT
Chain of recombinant cynomolgus PD-L1 (Sino Biological Inc.) (G7PSE7 entry or part of it limits assumed): as the sequence (Q9NZQ7 19-238 limits assumed) above, with A33T, A34S, S62N, R68Q, Q82R, F173L, T185A, T192I, H215L counted along it

B1: chimeric anti-human PD-L1 monoclonal antibody (antibody, human IgG1, kappa, V domains shown)
VH: EVQLQQSGAELVKPGASVKLSCTASGFNIEDTYIHWVMQRPEQGLEWIGRIDPANGNTKYDPKFQGKATITADTSSNTAYLQLSSLTSEDTAVYYCGRGLGAWFAYWGQGTLVTVSA
VL: DIVMTQSHKVMSTSVGDRVTITCKASQDVHTAVAWIHQKPGQSPKLLIYSASNRYTGVPDRFTGSGSGTDFTFTISSVQAEDLAVYYCQQHYITPLTFGAGTTLELKR
notes: expressed in ExpiCHO cells; also called Chimeric mAb; Chimeric antibody
**Q.** Which results are given for B1?
**A.** IC50 [1]: 0.762 nM; EC50 [2]: 0.074 nM; Kd [3]: 1.17 nM; koff [3]: 0.000594 s⁻¹; kon [3]: 507000 M⁻¹ s⁻¹; binding result [4]: no binding; binding result [5]: no binding; EC50 [6]: 0.066 nM; binding result [7]: no binding; EC50 [8]: 0.021 nM; EC50 [9]: 0.056 nM; IC50 [10]: 0.596 nM

Reference: US20240301068A1 (BEIJING HANMI PHARMACEUTICAL, published 2024)
